Biological target: T1, Mec1 (yeast (budding yeast), UniProt P38111 1-2368)
T1 construct: Mec1, yeast orthologue of mammalian ATR; 2,368 amino acids as the introduction says; The Mec1 subunit of m1, for the rows of two subunits; also called Mec1^ATR; yeast orthologue of ATR; source: yeast, overexpressed from pBL904 together with Ddc2, purified as the Mec1·Ddc2 complex (IgG-Sepharose, HRV 3C cleavage)
Assay: SEC; Mec1·Ddc2 on Superose 6 HR 10/30, 0.3 ml/min; 50 mM HEPES-KOH pH 7.4, 200 mM KCl, 10% glycerol, 0.1% Tween 20, 0.01% Nonidet P-40, 1 mM EDTA, 1 mM EGTA, 2 mM DTT; size against Bio-Rad gel filtration standards; peak fractions on SDS-PAGE
Conditions: both partners purified

T1 sequence (P38111 whole entry): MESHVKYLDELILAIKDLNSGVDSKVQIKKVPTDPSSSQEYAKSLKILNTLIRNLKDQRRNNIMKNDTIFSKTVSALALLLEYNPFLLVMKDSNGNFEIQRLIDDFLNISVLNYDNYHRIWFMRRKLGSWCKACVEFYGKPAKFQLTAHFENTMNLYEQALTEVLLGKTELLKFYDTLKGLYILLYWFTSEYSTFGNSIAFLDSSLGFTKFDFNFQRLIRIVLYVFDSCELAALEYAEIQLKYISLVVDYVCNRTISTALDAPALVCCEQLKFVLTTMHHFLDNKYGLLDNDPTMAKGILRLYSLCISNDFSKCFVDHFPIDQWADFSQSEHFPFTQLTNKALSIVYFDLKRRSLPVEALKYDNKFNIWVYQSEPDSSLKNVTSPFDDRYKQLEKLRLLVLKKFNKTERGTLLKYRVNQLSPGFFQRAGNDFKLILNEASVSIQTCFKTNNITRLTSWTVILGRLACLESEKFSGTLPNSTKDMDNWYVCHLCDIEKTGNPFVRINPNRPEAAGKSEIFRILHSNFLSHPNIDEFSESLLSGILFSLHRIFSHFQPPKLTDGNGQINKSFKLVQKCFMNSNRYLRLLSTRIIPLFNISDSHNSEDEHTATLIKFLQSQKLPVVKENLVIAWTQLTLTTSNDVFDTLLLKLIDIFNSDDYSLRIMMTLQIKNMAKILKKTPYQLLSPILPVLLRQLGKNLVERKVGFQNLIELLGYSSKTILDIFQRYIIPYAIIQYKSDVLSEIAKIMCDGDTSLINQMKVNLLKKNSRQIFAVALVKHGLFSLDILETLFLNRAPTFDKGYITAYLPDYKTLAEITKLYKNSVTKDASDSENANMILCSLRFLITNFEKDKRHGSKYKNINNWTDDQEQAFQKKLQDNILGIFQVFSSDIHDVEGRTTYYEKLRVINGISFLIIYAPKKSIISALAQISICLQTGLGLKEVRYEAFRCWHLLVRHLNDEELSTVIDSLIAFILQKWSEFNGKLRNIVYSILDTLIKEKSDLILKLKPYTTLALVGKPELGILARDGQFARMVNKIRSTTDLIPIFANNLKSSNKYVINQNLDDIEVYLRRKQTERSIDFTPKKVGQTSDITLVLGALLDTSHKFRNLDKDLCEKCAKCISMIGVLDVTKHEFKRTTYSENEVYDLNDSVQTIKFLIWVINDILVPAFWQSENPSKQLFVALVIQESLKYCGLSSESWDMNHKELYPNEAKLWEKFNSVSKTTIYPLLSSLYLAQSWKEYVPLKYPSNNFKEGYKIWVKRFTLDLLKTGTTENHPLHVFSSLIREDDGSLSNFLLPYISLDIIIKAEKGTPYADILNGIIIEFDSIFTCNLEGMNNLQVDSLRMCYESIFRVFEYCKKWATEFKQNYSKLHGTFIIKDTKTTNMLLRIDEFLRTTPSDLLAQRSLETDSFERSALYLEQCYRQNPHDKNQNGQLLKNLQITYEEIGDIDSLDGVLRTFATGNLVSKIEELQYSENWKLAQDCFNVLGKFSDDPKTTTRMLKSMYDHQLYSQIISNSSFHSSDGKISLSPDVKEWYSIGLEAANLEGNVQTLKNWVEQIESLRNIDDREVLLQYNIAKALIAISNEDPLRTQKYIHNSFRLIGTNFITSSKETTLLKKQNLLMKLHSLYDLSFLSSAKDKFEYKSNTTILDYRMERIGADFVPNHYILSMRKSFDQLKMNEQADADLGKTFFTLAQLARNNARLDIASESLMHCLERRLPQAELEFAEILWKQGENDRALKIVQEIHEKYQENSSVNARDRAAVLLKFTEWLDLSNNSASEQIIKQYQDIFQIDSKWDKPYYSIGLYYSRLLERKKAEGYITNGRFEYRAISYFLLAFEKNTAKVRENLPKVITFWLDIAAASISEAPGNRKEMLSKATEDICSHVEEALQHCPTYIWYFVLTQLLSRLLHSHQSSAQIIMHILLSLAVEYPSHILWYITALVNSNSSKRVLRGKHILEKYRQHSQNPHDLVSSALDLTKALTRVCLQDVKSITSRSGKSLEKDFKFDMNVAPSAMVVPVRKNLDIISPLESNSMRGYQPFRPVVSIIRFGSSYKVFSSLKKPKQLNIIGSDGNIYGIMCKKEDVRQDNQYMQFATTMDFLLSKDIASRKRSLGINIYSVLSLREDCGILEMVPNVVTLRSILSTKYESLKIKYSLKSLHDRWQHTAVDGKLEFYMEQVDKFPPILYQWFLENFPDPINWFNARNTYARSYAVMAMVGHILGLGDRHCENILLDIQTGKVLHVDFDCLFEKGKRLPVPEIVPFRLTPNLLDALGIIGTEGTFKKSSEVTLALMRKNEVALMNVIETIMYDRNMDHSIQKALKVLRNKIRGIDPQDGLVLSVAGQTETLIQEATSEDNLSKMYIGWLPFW

binding result: binds
B1: Ddc2 (natural protein, yeast (budding yeast), UniProt Q04377 1-747, looked up)
chain: MRRETVGEFSSDDDDDILLELGTRPPRFTQIPPSSAALQTQIPTTLEVTTTTLNNKQSKNDNQLVNQLNKAQGEASMLRDKINFLNIEREKEKNIQAVKVNELQVKHLQELAKLKQELQKLEDEKKFLQMEARGKSKREVITNVKPPSTTLSTNTNTITPDSSSVAIEAKPQSPQSKKRKISDNLLKKNMVPLNPNRIIPDETSLFLESILLHQIIGADLSTIEILNRLKLDYITEFKFKNFVIAKGAPIGKSIVSLLLRCKKTLTLDRFIDTLLEDIAVLIKEISVHPNESKLAVPFLVALMYQIVQFRPSATHNLALKDCFLFICDLIRIYHHVLKVPIHESNMNLHVEPQIFQYELIDYLIISYSFDLLEGILRVLQSHPKQTYMEFFDENILKSFEFVYKLALTISYKPMVNVIFSAVEVVNIITSIILNMDNSSDLKSLISGSWWRDCITRLYALLEKEIKSGDVYNENVDTTTLHMSKYHDFFGLIRNIGDNELGGLISKLIYTDRLQSVPRVISKEDIGMDSDKFTAPIIGYKMEKWLLKLKDEVLNIFENLLMIYGDDATIVNGEMLIHSSKFLSREQALMIERYVGQDSPNLDLRCHLIEHTLTIIYRLWKDHFKQLREEQIKQVESQLIMSLWRFLVCQTETVTANEREMRDHRHLVDSLHDLTIKDQASYYEDAFEDLPEYIEEELKMQLNKRTGRIMQVKYDEKFQEMARTILESKSFDLTTLEEADSLYISMGL
notes: Ddc2 (also called Lcd1 or Pie1), yeast orthologue of ATRIP; The Ddc2 subunit of m1, for the rows of two subunits; also called Lcd1; Pie1; source: yeast, overexpressed from pBL904 together with Mec1, purified as the Mec1·Ddc2 complex (IgG-Sepharose, HRV 3C cleavage)
